Assay results taken from patent US20240398973A1, “ENGINEERED ANTIBODY COMPOUNDS AND CONJUGATES THEREOF” (Eli Lilly and Company, priority 2017, published 2024).
Values joined by “and” are separate entries in the source; they are usually repeats but may differ in a detail not shown here. Equal entries are not always repeated.

Legend:
[1] = tested on: A549 human lung carcinoma cells; assay: PMN-mediated killing of A549 tumor cells (xCelligence); assay type: cell-based; details: 2 hours, mean ± SD, n=4
Protocol: (§1) Antibody-targeted killing of tumor cells by PMNs is measured using the xCelligence Real Time Cell Analysis system (ACEA Biosciences). This system monitors cell viability in real time by recording electrical impedance between sensors on the growth surface of culture plates. It reports a normalized cell index (NCI) that is normalized to control cells in parallel wells and allows one to control for relative culture viability. NCIs are measured continuously at 15 minute intervals for 24 hours following incubation of tumor cultures with targeted antibodies and addition of human primary PMNs at a 10:1 PMN to tumor cell ratio. Prior to seeding with tumor cells, xCelligence 96-well E-Plates are calibrated for background signal. Each well receives 50 μl of culture medium (RPMI+10% FBS+antibiotics) and the E-plate is equilibrated to 37° C. in a humidified incubator containing the xCelligence plate reader.
(§2) After equilibration, E-Plate well variations in background are measured. Cultured tumor cell lines are dissociated, counted and diluted to a final density of 1×10^5 cells/ml in culture medium and 100 μl of diluted tumor cells were plated into E-Plate wells. The E-Plate is returned to the xCelligence reader and cell indices are measured in 15 minute intervals overnight to establish baseline.
(§3) The next day, PMNs are isolated from fresh human blood samples and brought to a final density of 2×10^6 cells/ml in culture medium. Following overnight recording, the E-Plate is removed from the xCelligence reader and 22 μl of 10× antibody solution or buffer is added to designated wells. After 15 minutes, 50 μl of diluted PMNs (1×10^5 total cells) or buffer was added to designated wells. Immediately after PMN addition, the E-Plate is returned to the xCelligence reader and cell indices were measured for up to 72 hours. After completion of the experiment, cell indices are normalized (NCI) to the time point immediately preceding the addition of antibodies.
(§4) Percent NCI is defined as ((NCI of sample)/(NCI of Tumor Cells Alone)×100). For non-adherent tumor cells (Daudi cells), the xCelligence Immunotherapy Kit-B Cell Killing Assay (ACEA #8100004) is used to tether the tumor cells to E-Plate wells according to manufacturer protocols. Following tethering and background acquisition, the protocols are performed as indicated above.
Adherent MET(+) A549 human lung carcinoma cells are plated for approximately 24 hours, then incubated with Emibetuzumab-G4-fMLFK-HC-124C-375C or emibetuzumab-G4-UC-HC-124C-375C and exposed to primary human PMNs at 10:1 effector to target cell ratio.
Percent NCI values represent relative viability of A549 cells following 2 hours of exposure to the stated conditions. Values are given as mean percentage normalized to “+PMN” control±SD; n=4 for all conditions. Statistical significance was determined by one-way ANOVA followed by post-hoc Dunnett's multiple comparisons test vs “+PMN”. NCI, normalized cell index; PMN, primary human polymorphonuclear neutrophils; ns, not significant.

[2] = tested on: human primary PMNs; assay: PMN reactive oxygen species (ROS) production, luminol-amplified chemiluminescence; assay type: cell-based; details: for PMN ROS production: relative to 1000 nM fMLF, AUC 5 minutes (Tables 9, 11)
Protocol: Production of ROS by human primary PMNs is measured using luminol-amplified chemiluminescence. Following isolation, PMNs are suspended at 1×10^6 cells/ml in HBSS containing calcium and magnesium (Gibco #14025-092) supplemented with 0.25% human serum albumin (Gemini Bio producst #800-124) and 50 uM Luminol (SigmaAldrich #123072-2.5G). 100 μl of cell suspension (1×10^5 total cells) is then distributed into each well of a 96-well plate suitable for fluorescence measurement (Greiner #655098) and temperature equilibrated to 37° C. for 5 minutes. Following equilibration, 10× solution of antibody conjugate is applied to the wells, achieving a 1× final concentration.
Immediately after the addition of antibody conjugate, chemiluminescence signal is recorded in a luminometer maintained at 37° C. with 0.01 seconds dwell time per well, 20 seconds total time between sequential plate readings and 45 minutes total run time (PerkinElmer EnVision Multilabel Plate Reader).

[3] = tested on: Daudi B lymphoblast cells; assay: PMN-mediated killing of DAUDI tumor cells (xCelligence); assay type: cell-based, human; details: 6 hours, mean ± SD, n=4, normalized to Buffer control
Protocol: as §1, §2, §3, §4
Non-adherent, CD20+ Daudi B lymphoblast cells are immobilized with xCelligence Immunotherapy Kit (ACEA #8100004) to tether the tumor cells to E-Plate wells according to manufacturer protocols, and are exposed to conditions shown below in Table 16. Percent NCI values represent relative viability of DAUDI cells following 6 hours of exposure to the stated conditions. Values are given as mean percentage normalized to “Buffer control” ±SD; n=4 for all conditions. Statistical significance was determined by one-way ANOVA followed by post-hoc Dunnett's multiple comparisons test vs “+PMN”.

B1: Emibetuzumab-G4(PAA)-UC-HC-124C-375C: unconjugated emibetuzumab IgG4(PAA) with HC 124C and 375C; HC SEQ ID NO:4, LC SEQ ID NO:5 (antibody)
heavy: QVQLVQSGAEVKKPGASVKVSCKASGYTFTDYYMHWVRQAPGQGLEWMGRVNPNRRGTTYNQKFEGRVTMTTDTSTSTAYMELRSLRSDDTAVYYCARANWLDYWGQGTTVTVSSASTKGPCVFPLAPCSRSTSESTAALGCLVKDYFPEPVTVSWNSGALTSGVHTFPAVLQSSGLYSLSSVVTVPSSSLGTKTYTCNVDHKPSNTKVDKRVESKYGPPCPPCPAPEAAGGPSVFLFPPKPKDTLMISRTPEVTCVVVDVSQEDPEVQFNWYVDGVEVHNAKTKPREEQFNSTYRVVSVLTVLHQDWLNGKEYKCKVSNKGLPSSIEKTISKAKGQPREPQVYTLPPSQEEMTKNQVSLTCLVKGFYPCDIAVEWESNGQPENNYKTTPPVLDSDGSFFLYSRLTVDKSRWQEGNVFSCSVMHEALHNHYTQKSLSLSLG
light: DIQMTQSPSSLSASVGDRVTITCSVSSSVSSIYLHWYQQKPGKAPKLLIYSTSNLASGVPSRFSGSGSGTDFTLTISSLQPEDFATYYCQVYSGYPLTFGGGTKVEIKRTVAAPSVFIFPPSDEQLKSGTASVVCLLNNFYPREAKVQWKVDNALQSGNSQESVTEQDSKDSTYSLSSTLTLSKADYEKHKVYACEVTHQGLSSPVTKSFNRGEC
modifications: SITE 122 THIOETH - position 122 is cysteine residue modified by thioether bond formation to maleimide-polyethylene glycol (PEG) linker; SITE 370 THIOETH - position 370 is cysteine residue modified by thioether bond formation to maleimide-polyethylene glycol (PEG) linker
Percent NCI ([1]; A549, 3 nM + PMN): 102.3 ± 1.7%
Percent NCI ([1]; A549, 3 nM without PMN): 101.3 ± 0.7%
Percent NCI ([1]; A549, 10 nM + PMN): 102.5 ± 1.9%
Percent NCI ([1]; A549, 10 nM + PMN, listed as emibetuzumab-G4-UC-HC-124C-375C): 102.5±1.9%
Percent NCI ([1]; A549, 10 nM without PMN): 100.8 ± 1%
Percent NCI ([1]; A549, 30 nM + PMN): 102.7 ± 1.5%
Percent NCI ([1]; A549, 30 nM without PMN): 100.1 ± 0.9%
Percent NCI ([1]; A549, 100 nM + PMN): 102.9 ± 1.5%
Percent NCI ([1]; A549, 100 nM without PMN): 100.8 ± 1.4%
Percent NCI ([1]; A549, 300 nM + PMN): 102.3 ± 1.8%
Percent NCI ([1]; A549, 300 nM without PMN): 102.8 ± 4.9%

B2: AME133-G1(IQ)-UC-HC-124C-378C: unconjugated AME133 (anti-CD20) IgG1(IQ) with HC 124C and 378C; HC SEQ ID NO:8, LC SEQ ID NO:9 (antibody)
heavy: EVQLVQSGAEVKKPGESLKISCKGSGRTFTSYNMHWVRQMPGKGLEWMGAIYPLTGDTSYNQKSKLQVTISADKSISTAYLQWSSLKASDTAMYYCARSTYVGGDWQFDVWGKGTTVTVSSASTKGPCVFPLAPSSKSTSGGTAALGCLVKDYFPEPVTVSWNSGALTSGVHTFPAVLQSSGLYSLSSVVTVPSSSLGTQTYICNVNHKPSNTKVDKKVEPKSCDKTHTCPPCPAPELLGGPSVFLFPPKIKDTLMISRTPEVTCVVVDVSHEDPEVKFNWYVDGVEVHNAKTKPREEQYNSTYRVVSVLTVLHQDWLNGKEYKCKVSNKALPAPIEKTISKQKGQPREPQVYTLPPSRDELTKNQVSLTCLVKGFYPSDICVEWESNGQPENNYKTTPPVLDSDGSFFLYSKLTVDKSRWQQGNVFSCSVMHEALHNHYTQKSLSLSPG
light: EIVLTQSPGTLSLSPGERATLSCRASSSVPYIHWYQQKPGQAPRLLIYATSALASGIPDRFSGSGSGTDFTLTISRLEPEDFAVYYCQQWLSNPPTFGQGTKLEIKRTVAAPSVFIFPPSDEQLKSGTASVVCLLNNFYPREAKVQWKVDNALQSGNSQESVTEQDSKDSTYSLSSTLTLSKADYEKHKVYACEVTHQGLSSPVTKSFNRGEC
modifications: SITE 128 THIOETH - position 128 is cysteine residue modified by thioether bond formation to maleimide-polyethylene glycol (PEG) linker; SITE 382 THIOETH - position 382 is cysteine residue modified by thioether bond formation to maleimide-polyethylene glycol (PEG) linker
PMN ROS production ([2]; 1 nM): 10.3 percentage
PMN ROS production ([2]; 3 nM): 10.6 percentage
PMN ROS production ([2]; 10 nM): 10.6 percentage
PMN ROS production ([2]; 30 nM): 10.5 percentage
PMN ROS production ([2]; 100 nM): 10.3 percentage
PMN ROS production, Exposure: Buffer ([2]; 300 nM, Buffer, relative to fMLF, AUC 5 minutes (Table 12a)): 25.3 percentage
PMN ROS production, Exposure: Cyclosporin H ([2]; 300 nM, PMNs pre-incubated with 1 uM Cyclosporin H for 30 minutes, relative to fMLF (Table 12a)): 19.7 percentage
PMN ROS production ([2]; 300 nM): 11.4 percentage
PMN ROS production ([2]; 1000 nM): 13.9 percentage
Percent NCI ([3]; 10 nM + PMN): 58.7 ± 13.2%
Percent NCI ([3]; 10 nM without PMN): 97.7 ± 1.4%
Percent NCI ([3]; 30 nM + PMN): 93.4 ± 22.4%
Percent NCI ([3]; 30 nM without PMN, listed as AME133-G1(IQ)-UC-124C-378C): 97.3±1.2% and 97.3 ± 0.6%
Percent NCI ([3]; 100 nM + PMN): 114 ± 6.9%
Percent NCI ([3]; 100 nM without PMN): 90.9 ± 0.6%
Percent NCI ([3]; 300 nM + PMN): 113.2 ± 7.2%
Percent NCI ([3]; 300 nM without PMN): 87.7 ± 1.5%
